Laboratory results reported in paper PMC8809517, “Cofactor-independent RNA editing by a synthetic S-type PPR protein”.

Experiments:
Test in all cases: high-throughput RNA pulldown from lysate on Ni-NTA beads; HRP: 50 mM Tris pH 8, 150 mM NaCl, 1 mM beta-mercaptoethanol, 50 ug/ml BSA, 3 ug/ml yeast RNA, 0.5% heparin; ITC and FP: Tris pH 8, 200 mM KCl, 5% glycerol; MST: 50 mM Tris pH 8, 200 mM NaCl, 1 mM DTT, BSA, heparin, 0.05% Tween 20
Settings in all cases: tags: N-terminal His-eGFP
[1] = molecular target: T1, GFP-9S library array, motif 4 ND N98C;D124F (synthetic construct, N98C;D124F)
T1 chain: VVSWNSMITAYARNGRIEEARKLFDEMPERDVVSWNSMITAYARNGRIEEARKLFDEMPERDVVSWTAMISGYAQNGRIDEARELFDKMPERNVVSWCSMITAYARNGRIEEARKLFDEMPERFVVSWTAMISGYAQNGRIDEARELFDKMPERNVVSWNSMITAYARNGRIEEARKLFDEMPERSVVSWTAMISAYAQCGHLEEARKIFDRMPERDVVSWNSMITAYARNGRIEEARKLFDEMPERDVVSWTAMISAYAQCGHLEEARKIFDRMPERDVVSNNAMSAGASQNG

[2] = molecular target: T2, GFP-9S library array, motif 4 ND N98E;D124M (synthetic construct, N98E;D124M)
T2 chain: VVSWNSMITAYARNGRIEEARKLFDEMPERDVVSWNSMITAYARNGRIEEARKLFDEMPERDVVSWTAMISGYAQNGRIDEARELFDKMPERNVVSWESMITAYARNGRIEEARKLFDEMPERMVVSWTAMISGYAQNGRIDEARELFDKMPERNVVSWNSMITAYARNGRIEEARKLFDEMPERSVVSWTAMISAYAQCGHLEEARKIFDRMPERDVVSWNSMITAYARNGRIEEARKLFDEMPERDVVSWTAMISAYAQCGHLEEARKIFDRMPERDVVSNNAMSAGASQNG

[3] = molecular target: T3, GFP-9S library array, motif 4 ND N98M;D124E (synthetic construct, N98M;D124E)
T3 chain: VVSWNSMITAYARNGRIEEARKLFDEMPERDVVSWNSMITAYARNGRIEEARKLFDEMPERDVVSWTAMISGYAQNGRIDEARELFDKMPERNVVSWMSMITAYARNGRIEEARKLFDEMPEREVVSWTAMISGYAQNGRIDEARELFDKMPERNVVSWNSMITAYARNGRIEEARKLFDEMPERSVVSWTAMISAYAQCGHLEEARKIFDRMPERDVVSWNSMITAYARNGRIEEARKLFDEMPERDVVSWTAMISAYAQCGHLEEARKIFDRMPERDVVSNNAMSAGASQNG

[4] = molecular target: T4, GFP-9S library array, motif 4 ND N98G;D124K (synthetic construct, N98G;D124K)
T4 chain: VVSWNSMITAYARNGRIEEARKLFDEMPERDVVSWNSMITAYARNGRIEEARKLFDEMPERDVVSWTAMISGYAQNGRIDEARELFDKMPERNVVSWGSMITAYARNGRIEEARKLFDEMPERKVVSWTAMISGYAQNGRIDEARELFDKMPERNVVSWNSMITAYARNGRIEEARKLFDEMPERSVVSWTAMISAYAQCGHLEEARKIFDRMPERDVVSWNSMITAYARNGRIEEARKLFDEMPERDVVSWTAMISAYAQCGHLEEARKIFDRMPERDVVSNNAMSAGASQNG

[5] = molecular target: T5, GFP-9S library array, motif 4 ND N98Y;D124K (synthetic construct, N98Y;D124K)
T5 chain: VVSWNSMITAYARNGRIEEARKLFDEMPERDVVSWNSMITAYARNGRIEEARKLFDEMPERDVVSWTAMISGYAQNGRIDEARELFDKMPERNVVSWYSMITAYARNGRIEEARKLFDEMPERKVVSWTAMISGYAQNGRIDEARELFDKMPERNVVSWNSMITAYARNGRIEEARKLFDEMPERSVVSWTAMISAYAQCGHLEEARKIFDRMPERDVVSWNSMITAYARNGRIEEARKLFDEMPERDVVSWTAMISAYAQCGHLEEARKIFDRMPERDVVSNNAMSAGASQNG

B1: Cy5-rpoA (ssRNA)
RNA: AUUACACGUGA
[1]; label: 5' Cy5
  Kd: 126 nM
[2]; label: 5' Cy5
  Kd: 105 nM
[3]; label: 5' Cy5
  Kd: 117 nM
[4]; label: 5' Cy5
  Kd: 103 nM
[5]; label: 5' Cy5
  Kd: 93.3 nM

B2: IR-rpoA-U (ssRNA)
RNA: AUUAUACGUGA
[1]; label: 5' IRDye 800CW
  Kd: 317 nM
[2]; label: 5' IRDye 800CW
  Kd: 206 nM
[3]; label: 5' IRDye 800CW
  Kd: 158 nM
[4]; label: 5' IRDye 800CW
  Kd: 59.7 nM
[5]; label: 5' IRDye 800CW
  Kd: 227 nM

B3: Cy5-rpoA-G (ssRNA)
RNA: AUUAGACGUGA
[1]; label: 5' Cy5
  Kd: 100 nM
[2]; label: 5' Cy5
  Kd: 136 nM
[3]; label: 5' Cy5
  Kd: 89 nM
[4]; label: 5' Cy5
  Kd: 65.4 nM
[5]; label: 5' Cy5
  Kd: 97 nM

B4: IR-rpoA-A (ssRNA)
RNA: AUUAAACGUGA
[1]; label: 5' IRDye 800CW
  Kd: 203 nM
[2]; label: 5' IRDye 800CW
  Kd: 360 nM
[3]; label: 5' IRDye 800CW
  Kd: 264 nM
[4]; label: 5' IRDye 800CW
  Kd: 34.3 nM
[5]; label: 5' IRDye 800CW
  Kd: 207 nM
